Test results from patent US20050032681A1 (TEMPLE UNIV OF THE COMMONWEALTH SYSTEM OF HIGHER EDUCATION …, published 2005).
Changes are numbered by the printed parent chain. Numbers in names are those of the source.

T1: human neutrophil elastase (human, UniProt P08246 30-247, limits assumed)
T1 sequence (looked up): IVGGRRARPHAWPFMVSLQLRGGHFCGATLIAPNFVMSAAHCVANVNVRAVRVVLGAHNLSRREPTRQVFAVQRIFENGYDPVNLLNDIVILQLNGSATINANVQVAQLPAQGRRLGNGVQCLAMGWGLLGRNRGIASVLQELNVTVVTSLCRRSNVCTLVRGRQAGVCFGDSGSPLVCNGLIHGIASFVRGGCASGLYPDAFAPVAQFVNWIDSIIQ

T2: Human Cathepsin G (human, UniProt P08311 21-244)
T2 sequence (looked up): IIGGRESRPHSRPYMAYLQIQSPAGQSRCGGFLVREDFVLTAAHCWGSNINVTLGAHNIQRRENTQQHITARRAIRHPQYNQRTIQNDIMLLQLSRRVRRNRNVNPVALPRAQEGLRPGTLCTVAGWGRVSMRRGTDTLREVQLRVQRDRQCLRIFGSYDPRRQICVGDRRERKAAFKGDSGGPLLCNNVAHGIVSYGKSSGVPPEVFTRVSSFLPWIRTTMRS

B1: 5EA modified ATIII (on human ATIII.N135A background) (other)
chain: HGSPVDICTAKPRDIPMNPMCIYRSPEKKATEDEGSEQKIPEATNRRVWELSKANSRFATTFYQHLADSKNDNDNIFLSPLSISTAFAMTKLGACNDTLQQLMEVFKFDTISEKTSDQIHFFFAKLNCRLYRKAAKSSKLVSANRLFGDKSLTFNETYQDISELVYGAKLQPLDFKENAEQSRAAINKWVSNKTEGRITDVIPSEAINELTVLVLVNTIYFKGLWKSKFSPENTRKELFYKADGESCSASMMYQEGKFRYRRVAEGTQVLELPFKGDDITMVLILPKPEKSLAKVEKELTPEVLQEWLDELEEMMLVVHMPRFRIEDGFSLKEQLQDMGLVDLFSPEKSKLPGIVAEGRDDLYVSDAFHKAFLEVNEEGSEAAASTAVEAAGRSLNPNRVTFKANRPFLVFIREVPLNTIIFMGRVANPCVK
notes: Recombinant, baculovirus/Sf9, N135A background; also called AT.5EA
B2: 13 A modified ATIII (on human ATIII.N135A background) (other)
chain: B1 chain with A390G
notes: Recombinant, baculovirus/Sf9, N135A background; also called AT.13.A
B3: Bb.A modified ATIII (on human ATIII.N135A background) (other)
chain: B1 chain with A387E, V388G, A391S
notes: Recombinant, baculovirus/Sf9, N135A background; also called AT.Bb.A
B4: FF modified ATIII (on human ATIII.N135A background) (other)
chain: B1 chain with E389F, A390F
notes: Recombinant, baculovirus/Sf9, N135A background; also called AT.FF
B5: Aa modified ATIII (on human ATIII.N135A background) (other)
chain: B1 chain with V388E, E389G, A390G, A391G
notes: Recombinant, baculovirus/Sf9, N135A background; also called AT.Aa
B6: 7EVEA modified ATIII (on human ATIII.N135A background) (other)
chain: B1 chain with A387E
notes: Recombinant, baculovirus/Sf9, N135A background; also called AT.7EVEA
B7: 13.C modified ATIII (on human ATIII.N135A background) (other)
chain: B1 chain with A387E, V388L, A390G
notes: Recombinant, baculovirus/Sf9, N135A background; also called AT.13.C
B8: Bb modified ATIII (on human ATIII.N135A background) (other)
chain: B1 chain with A387E, V388G, E389F, A390F, A391S
notes: Recombinant, baculovirus/Sf9, N135A background; also called AT.Bb; Bb mutant
B9: 13.B modified ATIII (on human ATIII.N135A background) (other)
chain: B1 chain with A387E, A390G
notes: Recombinant, baculovirus/Sf9, N135A background; also called AT.13.B
B10: 13.D modified ATIII (on human ATIII.N135A background) (other)
chain: B1 chain with V388L, A390G
notes: Recombinant, baculovirus/Sf9, N135A background; also called AT.13.D
B11: Bb.B modified ATIII (on human ATIII.N135A background) (other)
chain: B1 chain with A387E, V388G, A390G, A391S
notes: Recombinant, baculovirus/Sf9, N135A background; also called AT.Bb.B
B12: LEAI modified ATIII (on human ATIII.N135A background) (other)
chain: B1 chain with V388L, A391I
notes: substitutions derived against S T A V V I A G R with the numbering of footnote c; also called AT3.LEAI
B13: Bb.D modified ATIII (on human ATIII.N135A background) (other)
chain: B1 chain with T386E, A387E, V388G, A390G, A391S
notes: Recombinant, baculovirus/Sf9, N135A background; also called AT.Bb.D
B14: F2A′ modified ATIII (on human ATIII.N135A background) (other)
chain: B1 chain with A387Q, V388T, E389P, A390P, A391N
B15: Bb.C modified ATIII (on human ATIII.N135A background) (other)
chain: B1 chain with T386E, A387E, V388G, A391S
modifications: Sf9-expressed glycoprotein: N-glycans expected at Asn 96, 155 and 192 (written N); Asn135 site removed by N135A.

biological target: T3, human factor Xa (human, UniProt P00742 41-179; P00742 235-488, limits assumed); experiment: pseudo-first-order factor Xa inhibition kinetics, residual activity with S-2765, 25 C, polybrene
T3 construct: that the active enzyme has two chains is from general knowledge
Protocol: (§1) Forty μL aliquots of ATIII samples at varying concentrations (450 nM, 300 nM, 150 nM) in PNE-PEG plus 50 μL polybrene (to neutralize any contaminating heparin) were preloaded into quadruplicate wells of a low-binding 96-well assay plate (Corning). The plate was maintained at 25° C., and 20 μL aliquots of 30 nM human thrombin or 15 nM human factor Xa were added to each of the four wells at successive 5 minute intervals. Reactions were quenched 5 minutes after addition of enzyme to the last of the wells by the adding 100 μL of 1.5 mM chromogenic substrate (S-2238 for thrombin; S-2765 for factor Xa). Residual enzyme activity was measured on a BioTek ELS11X kinetic plate reader controlled by a Macintosh SE with Deltasoft software. Initial rates of chromogenic substrate cleavage were monitored at 405 nm.

T3 sequence (P00742 41-179 limits assumed, chain 1 of 2): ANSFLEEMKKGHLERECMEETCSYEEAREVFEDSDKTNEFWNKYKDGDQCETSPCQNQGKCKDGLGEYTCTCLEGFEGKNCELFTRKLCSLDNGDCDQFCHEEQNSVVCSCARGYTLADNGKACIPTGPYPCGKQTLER
T3 sequence (P00742 235-488 limits assumed, chain 2 of 2): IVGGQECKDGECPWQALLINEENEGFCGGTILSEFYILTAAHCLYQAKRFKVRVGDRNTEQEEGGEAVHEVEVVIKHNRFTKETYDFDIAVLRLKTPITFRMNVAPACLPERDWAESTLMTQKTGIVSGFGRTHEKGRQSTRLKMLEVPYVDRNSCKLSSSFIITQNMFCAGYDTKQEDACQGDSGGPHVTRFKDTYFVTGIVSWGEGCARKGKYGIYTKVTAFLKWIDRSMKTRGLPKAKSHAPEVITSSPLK

Binder	kapp (apparent second-order rate constant of association) [M⁻¹ s⁻¹]
B1	3100
B2	500
B3	6200
B4	3000
B5	400
B6	4800
B7	5100
B8	4500
B9	2800
B10	3300
B11	700
B12	7000

biological target: human α-thrombin (human, UniProt P00734 328-363; P00734 364-622); experiment: pseudo-first-order thrombin inhibition kinetics, residual activity with S-2238, 25 C, polybrene
Protocol: as §1

Binder	kapp (apparent second-order rate constant of association) [M⁻¹ s⁻¹]
B1	600
B2	200
B13	100
B3	500
B4	1400
B5	400
B6	600
B8	3600
B12	3600

biological target: T1, human neutrophil elastase; experiment: cell-based or functional assay

Binder	HNE resistance T1/2, min [min]
B1	3.2
B14	2.6
B15	437
B2	2.1
B13	> 45
B3	27.4
B4	< 2.5
B5	9.1
B6	5.6
B7	10.1
B8	15.8
B9	7.6
B10	2.6
B11	44.8
B12	2.8

biological target: T2, Human Cathepsin G; experiment: cell-based or functional assay

Binder	Cathepsin G resistance T1/2, min [min]
B3	> 45
B8	1.4
B11	16.2
B12	6.1
